From patent US20260285989 (published 2026) come the findings set out here.

Changes are numbered by the printed parent chain.

To fix the notation:
T1: IL-18R1 ECD-His (human)
T1 chain: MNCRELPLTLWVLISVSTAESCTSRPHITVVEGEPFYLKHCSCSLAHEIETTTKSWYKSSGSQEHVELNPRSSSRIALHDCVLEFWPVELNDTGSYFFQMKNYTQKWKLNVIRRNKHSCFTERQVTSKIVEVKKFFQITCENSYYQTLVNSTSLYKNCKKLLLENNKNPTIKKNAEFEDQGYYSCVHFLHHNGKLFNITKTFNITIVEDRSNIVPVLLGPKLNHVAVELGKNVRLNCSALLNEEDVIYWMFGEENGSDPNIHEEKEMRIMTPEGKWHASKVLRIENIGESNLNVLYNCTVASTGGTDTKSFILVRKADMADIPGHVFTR

T2: IL-18RAP ECD-His (human)
T2 chain: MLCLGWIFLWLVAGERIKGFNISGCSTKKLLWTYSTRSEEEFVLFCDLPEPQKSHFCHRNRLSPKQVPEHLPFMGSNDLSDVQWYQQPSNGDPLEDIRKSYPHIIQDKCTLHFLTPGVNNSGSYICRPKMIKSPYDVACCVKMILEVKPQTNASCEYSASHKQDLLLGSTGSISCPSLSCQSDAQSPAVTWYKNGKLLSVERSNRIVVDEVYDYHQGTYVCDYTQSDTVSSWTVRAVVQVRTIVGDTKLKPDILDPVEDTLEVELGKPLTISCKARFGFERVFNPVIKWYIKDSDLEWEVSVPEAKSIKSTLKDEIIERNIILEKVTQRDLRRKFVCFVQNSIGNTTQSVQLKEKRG

B1: hzR1-F9-hFc (antibody, V domains shown)
VH: EVQLVESGGGLVQPGGSLRLSCAASGFTVHDMGWYRQAPGKECELVSTISSDASTYYADSVKGRFTISRDNAKNTLYLQMNSLRAEDTAVYYCAADSFTGLQLAECKADFGYWGQGTLVTVSS
B2: R1-A12-hFc (antibody, V domains shown)
VH: QVQLQESGGGPVQAGGSLRLSCSASTTAYDNACMGWFRQAPGKEREGVASIHLRDRTYYADSVKGRFTLSRDGASKTLYLQMNSLKPEDSGTYYCASSNICNGLNLQGNTYWGQGTQVTVSS
B3: R1-C10-hFc (antibody, V domains shown)
VH: QVQLQESGGGSVQAGETLRLSCTASGSTFDEYDMGWYRQAPGNKCELVSTISTIDGSTYYADSVKGRFTISQDNTKNTVYLQMNSLKPEDTGVYYCEADDRGTWDRGGCWGQGTQVTVSS
B4: hzR1-A12-hFc (antibody, V domains shown)
VH: EVQLVESGGGLVQPGGSLRLSCAASGTAYDNACMGWFRQAPGKEREGVASIHLRDRTYYADSVKGRFTISRDNSKNTLYLQMNSLRAEDTAVYYCASSNICNALNLQGNTYWGQGTLVTVSS
B5: R1-F9-hFc (antibody, V domains shown)
VH: QVQLQESGGGSVQAGETLRLSCTASGFTVHDMGWYRQAPGNECELVSTISSDGSTYYADSVKGRFTISQDNAKNTVYLQMNSLKPEDTAVYYCAADHFTGLQLAECKADFGYWGQGTQVTVSS
B6: hzR1-C7-hFc (antibody, V domains shown)
VH: EVQLVESGGGLVQPGGSLRLSCAASGNLYRDPCMGWFRQAPGKDREGVAAMNTGADSTFYARSVKGRFTISRDNAKNTLYLQMNSLRAEDTAVYYCAASRYCTERTYTWRYDYDYWGQGTLVTVSS
B7: R1-C7-hFc (antibody, V domains shown)
VH: QVQLQESGGGPVQAEGSLRLSCTASGNLYRDPCMGWFRQAPGKDREGVAAMNTGADSTFYARSVKGRFTISHDNAKNTLYLQMNSVKPEDTAMYYCAASRYCTERTWTWRYDYDYWGQGTQVTVSS
B8: hzR1-C10-hFc (antibody, V domains shown)
VH: EVQLVESGGGLVQPGGSLRLSCAASGSTFDEYDMGWYRQAPGGKCELVSTISTIDASTYYADSVKGRFTISRDNSKNTLYLQMNSLRAEDTAVYYCEADDRGTWDRGGCWGQGTLVTVSS
B9: hzRap-F11-hFc (antibody, V domains shown)
VH: EVQLVESGGGLVQPGGSLRLSCAASGFTYIPAYMGWFRQAPGKERERVASIKTDASTTYADSVEGRFTISQDNAKNTLYLQMNSLRPEDTAVYYCAAYQFGAFRVWGQGTLVTVSS
B10: Rap-C10-hFc (antibody, V domains shown)
VH: QVQLQESGGGSVQPGGSLRLSCAASGFTYIPAYMGWFRQAPGKERERVASISSTDGSTTYADSVKGRFTVSQDTAKNTLYLQMNSLKPEDTAMYYCAAYQFGAFRVWGQGTQVTVSS
B11: hzRap-C10-hFc (antibody, V domains shown)
VH: B10 VH with Q1E, Q5V, S11L, D55E, V70I, T74N, A75S, K87R, M93V, Q112L
B12: Rap-F11-hFc (antibody, V domains shown)
VH: QVQLQESGGGSVQPGGSLRLSCAASGFTYIPAYMGWFRQAPGKERERVASIKTDGSTTYADSVNGRFTIAQDTAKNTLYLQMDSLKPEDTAMYYCAAYQFGAFRVWGQGTQVTVSS
B13: hzRap-A10-hFc (designed binder)
chain: EVQLLESGGGLVQPGGSLRLSCAASGYTYGPYCMGWFRQAPGKEREGVAAVGGDARTWYGNSVKGRFTISRDNSKNTLYLQMNSLRAEDTAVYYCAADFDRTVCSDDIYDYTYRGQGTLVTVSS
B14: Rap-A10-hFc (designed binder)
chain: QVQLQESGGGLVQAGGSLKLSCAASGYTYGPYCMGWFRQFPGKEREGVAAVGGDGRTWYGNSVKGRFTISQDNAKKTLYLQINALKPEDTAMYYCAADFDRTVCSDDIYDYTYRGQGTQVTVSS

For one experiment, the target named is T1, IL-18R1 ECD-His. The experiment is described as follows: BLI. (In general: In BLI a coated tip is dipped into the sample, and binding shifts an interference pattern.)
B1: the Kd (in general, a measure of binding affinity in units of concentration) stood at 3.74 nM. Turning to B2, the Kd amounted to 2.82 nM. On the same count and under the same terms, as for B3, the figure is 0.0281 nM.

In turn, B4 gave a Kd of 2 nM. B5: binding was characterised by a dissociation constant (Kd) of 1.1 nM. Same read-out and setting: with B6 the figure was 2.53 nM; with B7, 2.56 nM; with B8, 1.45 nM.

Another experiment deals with T2, IL-18RAP ECD-His. The experiment is described as follows: BLI.
Consider B9, for which the Kd was found to be 4.85 nM.

Molecule B10 showed a Kd of 1.73 nM.

In the case of B11, the affinity, expressed as Kd, was 6.24 nM. Still for that read-out and setting: as for B12, the figure is 4.58 nM; as for B13, 0.986 nM; as for B14, 0.53 nM.
